# According to patent US20190338048A1:
# Like-named read-outs stand apart in the source and are kept apart here.
# Experiments:
# [1] = molecular target: Recombinant human IL-17A (human) (UniProt Q16552); experiment: SPR, IL-17A immobilised, purified Fab injected
# [2] = molecular target: Recombinant human IL-17A (human) (UniProt Q16552); experiment: SPR
# [3] = molecular target: CAT-2200 Fab heavy chain S188K; experiment: LCCA
# [4] = molecular target: CAT-2200 heavy chain Fab construct (H1) S186R; experiment: LCCA, SPR tag read-out
# [5] = molecular target: CAT-2200 heavy chain Fab construct (H1) Q39K; experiment: LCCA, SPR tag read-out
# [6] = molecular target: CR8071 lambda light chain L1 with S176K_Y178K; experiment: SMCA System C: four chains co-expressed, protein A, LC-MS
# [7] = molecular target: CR8071 lambda light chain L1 with S176K_Y178K; experiment: as above; remark: listed apart in the source
# [8] = molecular target: CR8071 lambda light chain L1 with S176E_Y178E; experiment: as above
# [9] = molecular target: Pertuzumab kappa light chain P44F_S131R_V133G_S176R; experiment: LCCA, SPR tag read-out
# [10] = molecular target: CAT-2200 lambda light chain E124Q_T131R; experiment: LCCA, SPR tag read-out
# [11] = molecular target: Pertuzumab kappa light chain P44F_V133G_S176D_T180E; experiment: LCCA, SPR tag read-out
# [12] = molecular target: Pertuzumab kappa light chain P44F_V133G_S176D_T180E; experiment: LCCA, SPR tag read-out; remark: listed apart in the source
# [13] = molecular target: Pertuzumab kappa light chain P44F_Q124R_T178R; experiment: LCCA, SPR tag read-out
# [14] = molecular target: CAT-2200 lambda light chain K129T_V133D; experiment: LCCA, SPR
# [15] = molecular target: Pertuzumab kappa light chain S131K_V133G_S176R_T178A; experiment: LCCA, SPR
# [16] = molecular target: Pertuzumab kappa light chain S131R_V133G_S176R_T178A; experiment: LCCA, SPR
# [17] = molecular target: CAT-2200 lambda light chain K129T_V133D; experiment: LCCA, SPR; remark: listed apart in the source
# [18] = molecular target: Pertuzumab kappa light chain S131R_V133S_L135K; experiment: LCCA, SPR
# [19] = molecular target: Pertuzumab kappa light chain Q124E_V133G_S176D_T178D; experiment: LCCA
# [20] = molecular target: Pertuzumab kappa light chain V133G_S176D_T180E (L2), N-terminal HA tag; experiment: LCCA, SPR of light chain tags
# [21] = molecular target: CAT-2200 lambda light chain S176K_Y178L (L1), N-terminal FLAG tag; experiment: LCCA, SPR of light chain tags
# [22] = molecular target: CAT-2200 lambda light chain S176K_Y178R (L1), N-terminal FLAG tag; experiment: LCCA, SPR of light chain tags
# [23] = molecular target: Pertuzumab kappa light chain V133G_S176D_T180E (L2), N-terminal HA tag; experiment: LCCA, SPR of light chain tags; remark: listed apart in the source
# [24] = molecular target: Pertuzumab kappa light chain V133G_S176D_T180E (L2), N-terminal HA tag; experiment: LCCA, SPR of light chain tags; remark: listed apart in the source
# [25] = molecular target: Pertuzumab kappa light chain V133G_S176D_T180E (L2), N-terminal HA tag; experiment: LCCA, SPR of light chain tags; remark: listed apart in the source
# [26] = molecular target: Pertuzumab kappa light chain V133G_S176D_T178E; experiment: LCCA, SPR
# [27] = molecular target: Pertuzumab kappa light chain V133G_S176D_T180E; experiment: LCCA, SPR
# [28] = molecular target: CAT-2200 lambda light chain E124Q_T131R; experiment: LCCA, SPR
# [29] = molecular target: Pertuzumab kappa light chain V133G_S176D_T178E; experiment: LCCA, SPR; remark: listed apart in the source
# [30] = molecular target: Pertuzumab kappa light chain V133G_S176D_T180E; experiment: LCCA, SPR; remark: listed apart in the source
# [31] = molecular target: CAT-2200 lambda light chain E124Q_T131K; experiment: LCCA, SPR
# [32] = molecular target: Pertuzumab kappa light chain V133G_L135W_S176D_T180E; experiment: LCCA, SPR tag read-out
# [33] = molecular target: Pertuzumab kappa light chain V133G_L135W_S176D_T180E; experiment: LCCA, SPR tag read-out; remark: listed apart in the source
# [34] = molecular target: CAT-2200 lambda light chain S176K_Y178K (L1), N-terminal FLAG tag; experiment: LCCA, SPR of light chain tags
# [35] = molecular target: CAT-2200 lambda light chain S122D_K129T_S180E; experiment: LCCA
# [36] = molecular target: Pertuzumab kappa light chain S121K_Q124R_Q160K_T178R; experiment: LCCA
# [37] = molecular target: Pertuzumab kappa light chain S121K_Q124R_T178R; experiment: LCCA
# [38] = molecular target: Pertuzumab kappa light chain Q124R_Q160R_S176A_T178R; experiment: LCCA, SPR
# [39] = molecular target: Pertuzumab kappa light chain Q124R_S176A_T178R; experiment: LCCA, SPR
# [40] = molecular target: Pertuzumab kappa light chain Q124K_L135A_T178R; experiment: LCCA
# [41] = molecular target: Pertuzumab kappa light chain Q124R_L135A_Q160K_T178R; experiment: LCCA
# [42] = molecular target: Pertuzumab kappa light chain S121K_Q124E_V133D; experiment: LCCA, SPR tag read-out
# [43] = molecular target: CAT-2200 lambda light chain T116F_S176F (L1), N-terminal FLAG tag; experiment: LCCA, SPR of light chain tags
# [44] = molecular target: Pertuzumab kappa light chain V133A (L2), N-terminal HA tag; experiment: LCCA, SPR of light chain tags
# [45] = molecular target: SGN-CD19a kappa light chain L2 with S131R_V133G_S176R; experiment: SMCA System B: four chains co-expressed, protein A, LC-MS
# [46] = molecular target: SGN-CD19a kappa light chain L2 with S131R_V133G_S176R; experiment: SMCA System C: four chains co-expressed, protein A, LC-MS
# [47] = molecular target: SGN-CD19a kappa light chain L2 with V133G_S176D; experiment: SMCA System B: four chains co-expressed, protein A, LC-MS
# [48] = molecular target: SGN-CD19a kappa light chain L2 with V133G_S176D; experiment: SMCA System C: four chains co-expressed, protein A, LC-MS
# [49] = molecular target: SGN-CD19a kappa light chain L2 with Q124E_V133D; experiment: SMCA System B: four chains co-expressed, protein A, LC-MS
# [50] = molecular target: SGN-CD19a kappa light chain L2 with Q124E_V133D; experiment: SMCA System C: four chains co-expressed, protein A, LC-MS
# Sequence of Recombinant human IL-17A (human) (Q16552 20-155 limits assumed): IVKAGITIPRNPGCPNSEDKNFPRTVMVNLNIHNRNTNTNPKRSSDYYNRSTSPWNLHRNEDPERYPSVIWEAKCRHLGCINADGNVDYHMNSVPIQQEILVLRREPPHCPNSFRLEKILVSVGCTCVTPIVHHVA
substance,measurement,setting,value
"CAT-2200 Fab, H1 Q179K / L1 K129T_S180E",Kd,[1],0.24 nM
same,Change in KD of H1L1 Fab vs wild type (log(KD) units),[2],-0.056
"CAT-2200 Fab, H1 S186R / L1 K129T_S180E",Kd,[1],0.26 nM
same,Change in KD of H1L1 Fab vs wild type (log(KD) units),[2],-0.088
CAT-2200 lambda light chain K129T_S176E_Y178E,H1L1:H1L2 median scalar value (ln(H1L1:H1L2)),[3],1.8
CAT-2200 lambda light chain S176E_Y178E,H1L1:H1L2 median scalar value (ln(H1L1:H1L2)),[3],1.01
"CAT-2200 lambda light chain construct (L1) K129T_S180E, FLAG-tagged",H1L1:H1L2 normalized median scalar value ln(r1/f1),[4],1.94
"CAT-2200 lambda light chain construct (L1) Q38D, FLAG-tagged",H1L1:H1L2 normalized median scalar value ln(r1/f1),[5],0.91
"CAT-2200 lambda light chain construct (L1) Q38E, FLAG-tagged",H1L1:H1L2 normalized median scalar value ln(r1/f1),[5],0.61
CR8071 heavy chain H1 with K145T_V177D_S188D,% H1L1 Pairing,[6],41.5%
same,Change in % H1L1 Pairing with respect to wild type,[6],-6.9%
same,% H1L1 Pairing,[7],62.6%
same,Change in % H1L1 Pairing with respect to wild type,[7],14.2%
CR8071 heavy chain H1 with S188K,% H1L1 Pairing,[8],94.5%
same,Change in % H1L1 Pairing with respect to wild type,[8],12.2%
Pertuzumab Fab heavy chain L45P_L124E_K145T_Q179E,H2L2:H2L1 median scalar value,[9],3.9 ln(ratio)
same,H2L2:H2L1 normalized median ratio,[9],97%
Pertuzumab Fab heavy chain L45P_L124R_Q179K,H2L2:H2L1 normalized median ratio,[10],14%
same,H2L2:H2L1 median scalar value,[11],1.45 ln(ratio)
same,H2L2:H2L1 normalized median ratio,[11],81%
same,H2L2:H2L1 median scalar value,[12],1.84 ln(ratio)
same,H2L2:H2L1 normalized median ratio,[12],86%
Pertuzumab Fab heavy chain L45P_L143E_K145T_Q179E,H2L2:H2L1 median scalar value,[13],3.81 ln(ratio)
same,H2L2:H2L1 normalized median ratio,[13],98%
Pertuzumab Fab heavy chain L124E_K145T_Q179E_S186I_S188W,H2L2:H2L1 normalized median ratio,[14],16%
same,H2L2:H2L1 normalized median ratio,[15],84%
same,H2L2:H2L1 normalized median scalar value ln(r1/f1),[15],1.69
same,H2L2:H2L1 normalized median ratio,[16],88%
same,H2L2:H2L1 normalized median scalar value ln(r1/f1),[16],2.04
same,H2L2:H2L1 normalized median ratio,[17],12%
Pertuzumab Fab heavy chain L124E_K145T_Q179E_S188W,H2L2:H2L1 normalized median ratio,[14],9%
same,H2L2:H2L1 normalized median ratio,[15],91%
same,H2L2:H2L1 normalized median scalar value ln(r1/f1),[15],2.31
same,H2L2:H2L1 normalized median ratio,[16],96%
same,H2L2:H2L1 normalized median scalar value ln(r1/f1),[16],3.12
same,H2L2:H2L1 normalized median ratio,[17],4%
Pertuzumab Fab heavy chain L124E_K145T_S186E,H2L2:H2L1 normalized median ratio,[14],20%
same,H2L2:H2L1 normalized median ratio,[18],80%
same,H2L2:H2L1 normalized median scalar value ln(r1/f1),[18],1.38
Pertuzumab Fab heavy chain L124K_S188K,H2L2:H2L1 median scalar value,[19],-0.29 ln
"Pertuzumab Fab heavy chain L124R_Q179K (H2), ABD2-His6 tagged",H2L2:H2L1 normalized median scalar value ln(r1/f1),[20],0.79
same,H2L2:H2L1 normalized median ratio,[21],34%
same,H2L2:H2L1 normalized median ratio,[22],31%
same,H2L2:H2L1 normalized median scalar value ln(r1/f1),[23],0.63
same,H2L2:H2L1 normalized median scalar value ln(r1/f1),[24],0.75
same,H2L2:H2L1 normalized median scalar value ln(r1/f1),[25],0.67
Pertuzumab Fab heavy chain L124R_S186K,H2L2:H2L1 normalized median scalar value ln(r1/f1),[26],1.22
same,H2L2:H2L1 normalized median scalar value ln(r1/f1),[27],1.32
same,H2L2:H2L1 normalized median ratio,[28],21%
same,H2L2:H2L1 normalized median scalar value ln(r1/f1),[29],1.12
same,H2L2:H2L1 normalized median scalar value ln(r1/f1),[30],1.47
same,H2L2:H2L1 normalized median ratio,[31],25%
same,H2L2:H2L1 median scalar value,[32],0 ln(ratio)
same,H2L2:H2L1 median scalar value,[33],0 ln(ratio)
"Pertuzumab Fab heavy chain L124R_S186R (H2), ABD2-His6 tagged",H2L2:H2L1 normalized median scalar value ln(r1/f1),[20],1.17
same,H2L2:H2L1 normalized median ratio,[34],26%
same,H2L2:H2L1 normalized median ratio,[21],27%
same,H2L2:H2L1 normalized median scalar value ln(r1/f1),[23],1.21
same,H2L2:H2L1 normalized median scalar value ln(r1/f1),[24],1.06
same,H2L2:H2L1 normalized median scalar value ln(r1/f1),[25],0.98
Pertuzumab Fab heavy chain L124R_S188K,H2L2:H2L1 median scalar value,[19],0.54 ln
Pertuzumab Fab heavy chain L143E_K145T_K228D,H2L2:H2L1 normalized median ratio,[35],28%
same,H2L2:H2L1 median scalar value,[36],-0.24 ln
same,H2L2:H2L1 median scalar value,[37],2.19 ln
same,H2L2:H2L1 normalized median ratio,[37],72%
Pertuzumab Fab heavy chain L143E_K145T_Q179E_S186I_S188W,H2L2:H2L1 normalized median scalar value ln(r1/f1),[38],1.42
same,H2L2:H2L1 normalized median scalar value ln(r1/f1),[39],2.8
Pertuzumab Fab heavy chain L143E_K145T_Q179E_S188F_V190F,H2L2:H2L1 median scalar value,[40],-0.51 ln
Pertuzumab Fab heavy chain L143E_K145T_Q179E_S188W,H2L2:H2L1 normalized median ratio,[14],15%
same,H2L2:H2L1 normalized median ratio,[38],85%
same,H2L2:H2L1 normalized median scalar value ln(r1/f1),[38],1.71
same,H2L2:H2L1 normalized median scalar value ln(r1/f1),[39],2.83
Pertuzumab Fab heavy chain L143E_K145T_V190F,H2L2:H2L1 median scalar value,[41],-0.23 ln
Pertuzumab Fab heavy chain L143I_S186K_K228D,H2L2:H2L1 median scalar value,[42],-0.18 ln(ratio)
Pertuzumab Fab heavy chain S186K_K228D,H2L2:H2L1 median scalar value,[42],-0.5 ln(ratio)
"Pertuzumab Fab heavy chain S188F (H2), ABD2-His6 tagged",H2L2:H2L1 normalized median ratio,[43],28%
same,H2L2:H2L1 normalized median ratio,[44],72%
same,H2L2:H2L1 normalized median scalar value ln(r1/f1),[44],0.93
SGN-CD19a heavy chain H2 with L124E_K145T_Q179E,% H2L2 Pairing,[45],77.3%
same,Change in % H2L2 Pairing with respect to wild type,[45],39.7%
same,% H2L2 Pairing,[46],99.5%
same,Change in % H2L2 Pairing with respect to wild type,[46],39.6%
SGN-CD19a heavy chain H2 with L124R,% H2L2 Pairing,[47],94.6%
same,Change in % H2L2 Pairing with respect to wild type,[47],40.4%
same,% H2L2 Pairing,[48],99.5%
same,Change in % H2L2 Pairing with respect to wild type,[48],19.9%
SGN-CD19a heavy chain H2 with L143K,% H2L2 Pairing,[49],94.3%
same,Change in % H2L2 Pairing with respect to wild type,[49],40.1%
same,% H2L2 Pairing,[50],99.6%
same,Change in % H2L2 Pairing with respect to wild type,[50],20%
